# Reference: publication PMC4511006 (2015)
# Ends that are not written are not given here.
# B1: Acetylated PA (AcPA) (peptide)
# peptide: IALILEPICCQERAA
# modifications: cysteine pairing not given here; also: acetylated, position not given here
# Molecular target: C1q CLR (collagen-like region) (UniProt P02745 31-109; P02747 31-112)
# Assay: SPR
binder,measurement,value
B1,koff,0.000219 s⁻¹
